According to patent publication US20170037111A1, “Novel peptides and combination of peptides for use in immunotherapy against ovarian cancer and other cancers” (immatics biotechnologies GmbH, priority 2015, published 2017):

Target: HLA-A*02:01 (Homo sapiens, UniProt P04439, D140Y/D185E/D98H/E176V/E277Q/G131W/G231S/I119V/I121R/I166T/I218V/L300P/L318F/N151K/N90K/P208A/P217A/Q86G/Q94H/R138H/R169H/T345S)
Test: MHC binding assay (UV-ligand exchange, β2m ELISA, peptide exchange yield)
Conditions: MHC class I binding score; binding to HLA-A*02:01 ranged by peptide exchange yield (UV-ligand exchange, β2m ELISA)
Method in brief: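 Peptide–HLA-A*02:01 complexes were formed by UV-mediated exchange of a UV-cleavable ligand for the test peptide. Exchange yield was measured by capturing complexes on streptavidin, detecting with HRP anti-β2m antibody (1 h, 37°C) and reading TMB absorbance at 450 nm.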

Peptide exchange | Substance
″++″ (≧20% = ++) | 209 (KLIESKHEV; listed as Homo sapiens) [compound 209]
″+++″ (≧50% = +++) | 322 (TLMTSLPAL; listed as Homo sapiens) [compound 322]
″++″ (≧20% = ++) | 63 (YLLPSGGSVTL; listed as Homo sapiens) [compound 63]
″++″ (≧20% = ++) | 233 (VLSETLYEL; listed as Homo sapiens) [compound 233]
″+++″ (≧50% = +++) | 366 (RLLDMGETDLML; listed as Homo sapiens) [compound 366]
″+++″ (≧50% = +++) | 557 (KLYDDMIRL; listed as Homo sapiens) [compound 557]
″+++″ (≧50% = +++) | 480 (ALLEDSCHYL; listed as Homo sapiens) [compound 480]
″+++″ (≧50% = +++) | 427 (ALLPLSPYL; listed as Homo sapiens) [compound 427]
″+++″ (≧50% = +++) | 45 (SLWQDIPDV; listed as Homo sapiens) [compound 45]
″+++″ (≧50% = +++) | 465 (QLCDLNAEL; listed as Homo sapiens) [compound 465]
″++″ (≧20% = ++) | 524 (ALIENLTHQI; listed as Homo sapiens) [compound 524]
″+++″ (≧50% = +++) | 164 (ALLPQPKNLTV; listed as Homo sapiens) [compound 164]
″++++″ (≧75% = ++++) | 347 (SLFKHDPAAWEA; listed as Homo sapiens) [compound 347]
″++″ (≧20% = ++) | 265 (LLFGGTKTV; listed as Homo sapiens) [compound 265]
″+++″ (≧50% = +++) | 599 (YLLNDASLISV; listed as Homo sapiens) [compound 599]
″+++″ (≧50% = +++) | 351 (SLIPNLRNV; listed as Homo sapiens) [compound 351]

Peptide exchange | Substance
″+++″ (≧50% = +++) | 263 (LLVSNLDFGV; listed as Homo sapiens) [compound 263]
″++++″ (≧75% = ++++) | 237 (ALLEASGTLLL; listed as Homo sapiens) [compound 237]
″+++″ (≧50% = +++) | 560 (ALWDIETGQQTTT; listed as Homo sapiens) [compound 560]
″++″ (≧20% = ++) | 432 (TLIEESAKV; listed as Homo sapiens) [compound 432]
″++″ (≧20% = ++) | 172 (VLYSYTIITV; listed as Homo sapiens) [compound 172]
″+++″ (≧50% = +++) | 530 (VMYADIGGMDI; listed as Homo sapiens) [compound 530]
″++″ (≧20% = ++) | 615 (VLPPDTDPA; listed as Homo sapiens) [compound 615]
″+++″ (≧50% = +++) | 181 (LLWAGTAFQV; listed as Homo sapiens) [compound 181]
″+++″ (≧50% = +++) | 88 (FLLVGDLMAV; listed as Homo sapiens) [compound 88]
″+++″ (≧50% = +++) | 467 (FLAKDFNFL; listed as Homo sapiens) [compound 467]
″+++″ (≧50% = +++) | 563 (WLLPYNGVTV; listed as Homo sapiens) [compound 563]
″+++″ (≧50% = +++) | 315 (YLQDVVEQA; listed as Homo sapiens) [compound 315]
″+″ (≧10% = +) | 520 (LAVHPSGVAL; listed as Homo sapiens) [compound 520]
″+++″ (≧50% = +++) | 512 (SLSEIVPCL; listed as Homo sapiens) [compound 512]
″+++″ (≧50% = +++) | 477 (ALLPASGQIAL; listed as Homo sapiens) [compound 477]
″+++″ (≧50% = +++) | 184 (YLMDINGKMWL; listed as Homo sapiens) [compound 184]
